Values quoted from earlier work in paper PMC3379994, “Comprehensive Analysis of Interactions between the Src-Associated Protein in Mitosis of 68 kDa and the Human Src-Homology 3 Proteome” (PLoS ONE, 2012).

Target: Nef (Human immunodeficiency virus 1) (UniProt P04324)
Assay: SPR

Sequence of Hck SH3 (P08631 75-141): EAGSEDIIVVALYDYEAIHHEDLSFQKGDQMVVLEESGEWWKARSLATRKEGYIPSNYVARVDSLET

Hck SH3 (from UniProt P08631)
Kd: 250 nM
